Here are results for two molecules from patent US20150368351A1 (ENGMAB SARL, published 2015).

Assay [1] addresses T1, recombinant human BCMA Fc(kih) (human, UniProt Q02223 4-53, biotin on the avi-tag at the C-terminus of the Fc knob chain (BirA, in vivo)).
T1 construct: range 4-53;domain: Fc portion (hole chain); Monomeric Fc fusion made in HEK EBNA cells: one BCMA extracellular domain on the knob chain, paired with an unfused hole chain; also called huBCMA Fc(kih); biotinylated human BCMA; not shown: hinge and Fc portion of human IgG1, knob chain (knobs-into-holes)
T1 chain (looked up): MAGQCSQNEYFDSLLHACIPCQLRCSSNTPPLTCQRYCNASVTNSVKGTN
In words: SPR, Biacore T200, 25 C; IgG captured by anti-human Fab antibody on CM5 chip, BCMA Fc(kih) as analyte, 1:1 Langmuir.

Assay [2] addresses T2, human BCMA on BCMA-expressing multiple myeloma cells (H929, RPMI-8226) (human, UniProt Q02223 1-184).
T2 construct: whole, on cells; Endogenous BCMA on H929 (ATCC CRL-9068) or RPMI 8226 (ATCC CCL-155) cells; also called TNFRSF17; H929 cells
T2 sequence (looked up): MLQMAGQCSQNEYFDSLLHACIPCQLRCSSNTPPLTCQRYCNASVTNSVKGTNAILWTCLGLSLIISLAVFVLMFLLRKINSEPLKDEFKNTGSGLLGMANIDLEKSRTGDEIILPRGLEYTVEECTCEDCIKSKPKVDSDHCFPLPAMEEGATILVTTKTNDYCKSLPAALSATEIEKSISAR
In words: flow cytometry on H929 cells; IgG 20 µg/mL incubated together with competitor Δ-APRIL 2.5 µg/mL; fluorochrome-conjugated anti-human Fc detection. A general note: A flow cytometer gives signals particle by particle.

Assay [3] concerns the target T1, recombinant human BCMA Fc(kih). Description: competition ELISA; biotinylated human BCMA on neutravidin plate saturated with 500 or 1000 nM Fab, competitor murine APRIL 50 nM (1000 ng/mL); anti-FLAG-HRP, OD450-650. (In an ELISA, binding on a coated surface is turned into a signal by an enzyme label.)
The target is the same in assay [4]. In words: competition ELISA; biotinylated human BCMA on neutravidin plate saturated with 500 or 1000 nM Fab, competitor murine APRIL 6.25 nM (140 ng/mL); anti-FLAG-HRP, OD450-650.
For assay [5] the target is unchanged. In words: SPR, ProteOn XPR36, 25 C; biotinylated BCMA on NLC chip by neutravidin capture, Fab as analyte, 1:1 Langmuir. (In SPR one partner is held on a chip, and binding of the other changes the refractive index at the surface.)

B1: 13A4 anti-BCMA IgG (antibody, V domains shown)
VH: EVQLVQSGAEVKKPGESLKISCKGSGYSFTSYWIGWVRQMPGKGLEWMGIIYPGDSDTRYSPSFQGQVTISADKSISTAYLQWSSLKASDTAMYYCARNGYLGDYWGQGTLVTVSS
VL: not shown
What is called Kd is the constant that tells how readily two partners part at equilibrium. Broadly, the koff is a measure of how fast the partners let go of each other. In general, kon refers to the rate constant with which the complex forms. As to B1, in assay [1], the Kd came out at 5.1 nM, the koff came out at 0.00036 s⁻¹ and the kon turned out to be 72000 M⁻¹ s⁻¹. The “Reduction (↓) in binding of anti-BCMA antibodies in presence of APRIL” value in assay [2] was 25%.

B2: anti-BCMA Fab clone 13A4 (Fab, V domains shown)
VH: EVQLVQSGAEVKKPGESLKISCKGSGYSFTSYWIGWVRQMPGKGLEWMGIIYPGDSDTRYSPSFQGQVTISADKSISTAYLQWSSLKASDTAMYYCARNGYLGDYWGQGTLVTVSS
VL: not shown
notes: detected by anti-FLAG antibody
As for B2, the “Reduction (↓) in OD values in presence of muAPRIL” value in assay [3] was found to be 13.1%; in assay [4], 7.7%. The Kd in assay [5] amounted to 1.8 nM.
